Results from paper PMC7946914, “easyCLIP analysis of RNA-protein interactions incorporating absolute quantification”.

Assays:
Test in all cases: fluorescence polarization; FP with 3' 6-FAM RNA; PCBP1 RNA diluted to 50 nM in PCBP binding buffer; buffer composition, pH and temperature not in the material
A1CF WT = target: T1, A1CF WT (human?, UniProt Q9NQ94 1-594); conditions: protein: recombinant; label: 3' 6-FAM; single-stranded
T1 sequence: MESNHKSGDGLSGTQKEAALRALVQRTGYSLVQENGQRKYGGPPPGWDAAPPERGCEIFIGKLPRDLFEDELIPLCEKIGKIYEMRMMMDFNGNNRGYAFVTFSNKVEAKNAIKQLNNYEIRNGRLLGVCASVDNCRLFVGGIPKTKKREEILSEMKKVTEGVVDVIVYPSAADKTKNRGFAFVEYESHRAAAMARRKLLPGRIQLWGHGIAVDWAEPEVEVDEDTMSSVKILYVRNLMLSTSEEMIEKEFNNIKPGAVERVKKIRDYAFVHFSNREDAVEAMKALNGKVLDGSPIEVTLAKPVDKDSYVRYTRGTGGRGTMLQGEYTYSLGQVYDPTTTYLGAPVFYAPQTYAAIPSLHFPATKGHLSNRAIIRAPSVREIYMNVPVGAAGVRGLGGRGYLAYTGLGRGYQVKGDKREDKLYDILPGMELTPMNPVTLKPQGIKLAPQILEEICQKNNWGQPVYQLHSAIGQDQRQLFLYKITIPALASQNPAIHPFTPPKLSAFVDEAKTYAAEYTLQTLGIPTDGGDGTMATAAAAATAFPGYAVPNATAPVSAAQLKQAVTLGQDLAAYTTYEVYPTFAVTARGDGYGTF

A1CF E34K = target: T2, A1CF E34K (human?, UniProt Q9NQ94 1-594, E34K); conditions: protein: recombinant; label: 3' 6-FAM; single-stranded
T2 sequence: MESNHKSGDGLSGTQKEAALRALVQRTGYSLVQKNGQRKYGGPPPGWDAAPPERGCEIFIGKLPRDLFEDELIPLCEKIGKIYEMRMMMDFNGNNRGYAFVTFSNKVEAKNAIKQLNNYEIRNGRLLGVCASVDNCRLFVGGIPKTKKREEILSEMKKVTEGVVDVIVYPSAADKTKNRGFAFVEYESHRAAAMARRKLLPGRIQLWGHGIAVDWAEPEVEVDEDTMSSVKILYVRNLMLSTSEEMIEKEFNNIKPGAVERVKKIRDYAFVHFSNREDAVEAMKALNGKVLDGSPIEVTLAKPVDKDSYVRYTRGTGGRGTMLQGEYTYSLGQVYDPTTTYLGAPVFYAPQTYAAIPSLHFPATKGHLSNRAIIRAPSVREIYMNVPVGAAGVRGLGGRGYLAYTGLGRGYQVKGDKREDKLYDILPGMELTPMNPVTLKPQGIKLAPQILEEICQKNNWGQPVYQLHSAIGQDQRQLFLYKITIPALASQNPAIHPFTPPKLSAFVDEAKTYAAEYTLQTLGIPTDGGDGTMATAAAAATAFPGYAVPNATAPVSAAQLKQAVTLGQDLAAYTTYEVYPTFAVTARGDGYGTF

KHDRBS2 WT = target: T3, KHDRBS2 WT (UniProt Q5VWX1 1-349); conditions: protein: recombinant; chain copies: 2; label: 3' 6-FAM; single-stranded
T3 sequence: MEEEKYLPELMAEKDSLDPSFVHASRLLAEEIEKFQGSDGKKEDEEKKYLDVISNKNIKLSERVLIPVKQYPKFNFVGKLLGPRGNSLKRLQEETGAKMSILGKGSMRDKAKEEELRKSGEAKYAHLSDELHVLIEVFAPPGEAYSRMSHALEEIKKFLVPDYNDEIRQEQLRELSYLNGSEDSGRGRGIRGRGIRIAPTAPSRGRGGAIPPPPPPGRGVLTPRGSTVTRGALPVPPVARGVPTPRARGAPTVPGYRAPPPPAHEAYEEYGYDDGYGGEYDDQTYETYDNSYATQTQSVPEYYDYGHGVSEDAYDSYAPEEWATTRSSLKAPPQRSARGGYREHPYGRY

KHDRBS2 R168C = target: T4, KHDRBS2 R168C (UniProt Q5VWX1 1-349, R168C); conditions: protein: recombinant; chain copies: 2; label: 3' 6-FAM; single-stranded
T4 sequence: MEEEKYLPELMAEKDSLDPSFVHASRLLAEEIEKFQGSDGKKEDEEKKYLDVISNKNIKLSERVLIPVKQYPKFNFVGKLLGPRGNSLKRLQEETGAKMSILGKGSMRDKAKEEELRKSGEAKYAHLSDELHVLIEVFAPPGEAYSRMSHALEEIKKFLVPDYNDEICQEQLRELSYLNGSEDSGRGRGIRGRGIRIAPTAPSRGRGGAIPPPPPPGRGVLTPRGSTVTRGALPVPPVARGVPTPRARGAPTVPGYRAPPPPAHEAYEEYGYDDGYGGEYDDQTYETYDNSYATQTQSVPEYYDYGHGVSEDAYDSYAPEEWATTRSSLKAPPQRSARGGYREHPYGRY

B1: AU-rich RNA (A1CF and KHDRBS2) (ssRNA)
RNA: AUUAAAUUAAAUUU
binding signal (A1CF WT): 1 fold (reference)
binding signal (A1CF E34K): ~2 fold affinity vs WT
binding signal (KHDRBS2 WT): 1 fold (reference)
binding signal (KHDRBS2 R168C): ~2 fold affinity vs WT
